Assay results from patent US20220040297A1 (Chugai, published 2022).

target: T1, CD3ε homodimer protein (human, UniProt P07766 23-126, limits assumed, sulfo-tag or biotin label in some ECL assays); assay: SPR, CD3ε homodimer on chip;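 note: biacore SPR with antibody variants flowed as analyte over amine-coupled CD3ε homodimer on a CM chip, bound amount of each single-residue H chain variant over that of parent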
T1 construct: also called human CD3ε homodimer protein; CD3 (CD3ε)
T1 sequence (P07766 23-126 limits assumed): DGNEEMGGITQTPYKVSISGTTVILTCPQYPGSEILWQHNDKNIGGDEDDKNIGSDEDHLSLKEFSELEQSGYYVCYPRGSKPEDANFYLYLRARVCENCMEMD

ratio of amounts bound vs CE115HA000	Binder
0.83	CE115HA000 N53S (antibody, name in Kabat numbering, V domains shown) VH: QVQLVESGGGVVQPGRSLRLSCAASGFTFSNAWMHWVRQAPGKGLEWVAQIKAKSSNYATYYAESVKGRFTISRDDSKNSLYLQMNSLKTEDTAVYYCRYVHYGAYYGVDAWGQGTTVTVSS VL: DIVMTQSPLSLPVTPGEPASISCRSSQSLVHSNRNTYLHWYQQKPGQAPRLLIYKVSNRFSGVPDRFSGSGSGTDFTLKISRVEAEDVGVYYCGQGTQVPYTFGQGTKLEIK
0.94	CE115HA000 N54L (antibody, name in Kabat numbering, V domains shown) VH: QVQLVESGGGVVQPGRSLRLSCAASGFTFSNAWMHWVRQAPGKGLEWVAQIKAKSNLYATYYAESVKGRFTISRDDSKNSLYLQMNSLKTEDTAVYYCRYVHYGAYYGVDAWGQGTTVTVSS VL: DIVMTQSPLSLPVTPGEPASISCRSSQSLVHSNRNTYLHWYQQKPGQAPRLLIYKVSNRFSGVPDRFSGSGSGTDFTLKISRVEAEDVGVYYCGQGTQVPYTFGQGTKLEIK
0.84	CE115HA000 N54S (antibody, name in Kabat numbering, V domains shown) VH: QVQLVESGGGVVQPGRSLRLSCAASGFTFSNAWMHWVRQAPGKGLEWVAQIKAKSNSYATYYAESVKGRFTISRDDSKNSLYLQMNSLKTEDTAVYYCRYVHYGAYYGVDAWGQGTTVTVSS VL: DIVMTQSPLSLPVTPGEPASISCRSSQSLVHSNRNTYLHWYQQKPGQAPRLLIYKVSNRFSGVPDRFSGSGSGTDFTLKISRVEAEDVGVYYCGQGTQVPYTFGQGTKLEIK
1.12	CE115HA000 N54F (antibody, name in Kabat numbering, V domains shown) VH: QVQLVESGGGVVQPGRSLRLSCAASGFTFSNAWMHWVRQAPGKGLEWVAQIKAKSNFYATYYAESVKGRFTISRDDSKNSLYLQMNSLKTEDTAVYYCRYVHYGAYYGVDAWGQGTTVTVSS VL: DIVMTQSPLSLPVTPGEPASISCRSSQSLVHSNRNTYLHWYQQKPGQAPRLLIYKVSNRFSGVPDRFSGSGSGTDFTLKISRVEAEDVGVYYCGQGTQVPYTFGQGTKLEIK
0.33	CE115HA000 Q50K (antibody, name in Kabat numbering, V domains shown) VH: QVQLVESGGGVVQPGRSLRLSCAASGFTFSNAWMHWVRQAPGKGLEWVAKIKAKSNNYATYYAESVKGRFTISRDDSKNSLYLQMNSLKTEDTAVYYCRYVHYGAYYGVDAWGQGTTVTVSS VL: DIVMTQSPLSLPVTPGEPASISCRSSQSLVHSNRNTYLHWYQQKPGQAPRLLIYKVSNRFSGVPDRFSGSGSGTDFTLKISRVEAEDVGVYYCGQGTQVPYTFGQGTKLEIK
0.84	CE115HA000 N54Q (antibody, name in Kabat numbering, V domains shown) VH: QVQLVESGGGVVQPGRSLRLSCAASGFTFSNAWMHWVRQAPGKGLEWVAQIKAKSNQYATYYAESVKGRFTISRDDSKNSLYLQMNSLKTEDTAVYYCRYVHYGAYYGVDAWGQGTTVTVSS VL: DIVMTQSPLSLPVTPGEPASISCRSSQSLVHSNRNTYLHWYQQKPGQAPRLLIYKVSNRFSGVPDRFSGSGSGTDFTLKISRVEAEDVGVYYCGQGTQVPYTFGQGTKLEIK
0.88	CE115HA000 N53W (antibody, name in Kabat numbering, V domains shown) VH: QVQLVESGGGVVQPGRSLRLSCAASGFTFSNAWMHWVRQAPGKGLEWVAQIKAKSWNYATYYAESVKGRFTISRDDSKNSLYLQMNSLKTEDTAVYYCRYVHYGAYYGVDAWGQGTTVTVSS VL: DIVMTQSPLSLPVTPGEPASISCRSSQSLVHSNRNTYLHWYQQKPGQAPRLLIYKVSNRFSGVPDRFSGSGSGTDFTLKISRVEAEDVGVYYCGQGTQVPYTFGQGTKLEIK
0.98	CE115HA000 N54G (antibody, name in Kabat numbering, V domains shown) VH: QVQLVESGGGVVQPGRSLRLSCAASGFTFSNAWMHWVRQAPGKGLEWVAQIKAKSNGYATYYAESVKGRFTISRDDSKNSLYLQMNSLKTEDTAVYYCRYVHYGAYYGVDAWGQGTTVTVSS VL: DIVMTQSPLSLPVTPGEPASISCRSSQSLVHSNRNTYLHWYQQKPGQAPRLLIYKVSNRFSGVPDRFSGSGSGTDFTLKISRVEAEDVGVYYCGQGTQVPYTFGQGTKLEIK
0.24	CE115HA000 Q50A (antibody, name in Kabat numbering, V domains shown) VH: QVQLVESGGGVVQPGRSLRLSCAASGFTFSNAWMHWVRQAPGKGLEWVAAIKAKSNNYATYYAESVKGRFTISRDDSKNSLYLQMNSLKTEDTAVYYCRYVHYGAYYGVDAWGQGTTVTVSS VL: DIVMTQSPLSLPVTPGEPASISCRSSQSLVHSNRNTYLHWYQQKPGQAPRLLIYKVSNRFSGVPDRFSGSGSGTDFTLKISRVEAEDVGVYYCGQGTQVPYTFGQGTKLEIK
0.27	CE115HA000 Q50D (antibody, name in Kabat numbering, V domains shown) VH: QVQLVESGGGVVQPGRSLRLSCAASGFTFSNAWMHWVRQAPGKGLEWVADIKAKSNNYATYYAESVKGRFTISRDDSKNSLYLQMNSLKTEDTAVYYCRYVHYGAYYGVDAWGQGTTVTVSS VL: DIVMTQSPLSLPVTPGEPASISCRSSQSLVHSNRNTYLHWYQQKPGQAPRLLIYKVSNRFSGVPDRFSGSGSGTDFTLKISRVEAEDVGVYYCGQGTQVPYTFGQGTKLEIK
1.2	CE115HA000 N54K (antibody, name in Kabat numbering, V domains shown) VH: QVQLVESGGGVVQPGRSLRLSCAASGFTFSNAWMHWVRQAPGKGLEWVAQIKAKSNKYATYYAESVKGRFTISRDDSKNSLYLQMNSLKTEDTAVYYCRYVHYGAYYGVDAWGQGTTVTVSS VL: DIVMTQSPLSLPVTPGEPASISCRSSQSLVHSNRNTYLHWYQQKPGQAPRLLIYKVSNRFSGVPDRFSGSGSGTDFTLKISRVEAEDVGVYYCGQGTQVPYTFGQGTKLEIK
0.62	CE115HA000 N54D (antibody, name in Kabat numbering, V domains shown) VH: QVQLVESGGGVVQPGRSLRLSCAASGFTFSNAWMHWVRQAPGKGLEWVAQIKAKSNDYATYYAESVKGRFTISRDDSKNSLYLQMNSLKTEDTAVYYCRYVHYGAYYGVDAWGQGTTVTVSS VL: DIVMTQSPLSLPVTPGEPASISCRSSQSLVHSNRNTYLHWYQQKPGQAPRLLIYKVSNRFSGVPDRFSGSGSGTDFTLKISRVEAEDVGVYYCGQGTQVPYTFGQGTKLEIK
0.26	CE115HA000 Q50E (antibody, name in Kabat numbering, V domains shown) VH: QVQLVESGGGVVQPGRSLRLSCAASGFTFSNAWMHWVRQAPGKGLEWVAEIKAKSNNYATYYAESVKGRFTISRDDSKNSLYLQMNSLKTEDTAVYYCRYVHYGAYYGVDAWGQGTTVTVSS VL: DIVMTQSPLSLPVTPGEPASISCRSSQSLVHSNRNTYLHWYQQKPGQAPRLLIYKVSNRFSGVPDRFSGSGSGTDFTLKISRVEAEDVGVYYCGQGTQVPYTFGQGTKLEIK
0.4	CE115HA000 Q50I (antibody, name in Kabat numbering, V domains shown) VH: QVQLVESGGGVVQPGRSLRLSCAASGFTFSNAWMHWVRQAPGKGLEWVAIIKAKSNNYATYYAESVKGRFTISRDDSKNSLYLQMNSLKTEDTAVYYCRYVHYGAYYGVDAWGQGTTVTVSS VL: DIVMTQSPLSLPVTPGEPASISCRSSQSLVHSNRNTYLHWYQQKPGQAPRLLIYKVSNRFSGVPDRFSGSGSGTDFTLKISRVEAEDVGVYYCGQGTQVPYTFGQGTKLEIK
0.85	CE115HA000 N54A (antibody, name in Kabat numbering, V domains shown) VH: QVQLVESGGGVVQPGRSLRLSCAASGFTFSNAWMHWVRQAPGKGLEWVAQIKAKSNAYATYYAESVKGRFTISRDDSKNSLYLQMNSLKTEDTAVYYCRYVHYGAYYGVDAWGQGTTVTVSS VL: DIVMTQSPLSLPVTPGEPASISCRSSQSLVHSNRNTYLHWYQQKPGQAPRLLIYKVSNRFSGVPDRFSGSGSGTDFTLKISRVEAEDVGVYYCGQGTQVPYTFGQGTKLEIK
